Data as given in patent US20220220215A1 (CRESCENDO BIOLOGICS, published 2022).

T1: human OX40-Fc (R&D Systems cat no. 3388-OX) (human, UniProt P43489 29-216, limits assumed)
T1 sequence (looked up): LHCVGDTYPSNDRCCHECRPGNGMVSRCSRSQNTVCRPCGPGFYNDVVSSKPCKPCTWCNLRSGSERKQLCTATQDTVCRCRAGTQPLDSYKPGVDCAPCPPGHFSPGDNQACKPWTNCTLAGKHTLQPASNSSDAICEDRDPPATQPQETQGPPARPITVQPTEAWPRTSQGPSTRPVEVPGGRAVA

T2: human HVEM (R&D Systems cat no. HVM-H5258) (human, UniProt Q92956 39-202, limits assumed)
T2 sequence (looked up): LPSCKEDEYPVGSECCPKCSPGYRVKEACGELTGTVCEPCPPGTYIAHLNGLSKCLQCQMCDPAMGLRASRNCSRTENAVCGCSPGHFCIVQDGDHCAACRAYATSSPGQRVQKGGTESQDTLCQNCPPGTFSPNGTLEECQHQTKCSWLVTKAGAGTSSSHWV

T3: human GITR-Fc (R&D Systems cat no. 689-GR) (human, UniProt Q9Y5U5 26-161)
T3 construct: also called Glucocorticoid-induced TNFR-related
T3 sequence (looked up): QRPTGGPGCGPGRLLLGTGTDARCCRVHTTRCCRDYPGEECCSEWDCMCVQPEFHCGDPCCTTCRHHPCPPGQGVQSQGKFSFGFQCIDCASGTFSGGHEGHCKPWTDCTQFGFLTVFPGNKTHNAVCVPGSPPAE

T4: human HVEM (R&D Systems cat no. HVM-H5258) (human, UniProt Q92956 39-202, limits assumed)
T4 construct: Bought protein
T4 sequence (looked up): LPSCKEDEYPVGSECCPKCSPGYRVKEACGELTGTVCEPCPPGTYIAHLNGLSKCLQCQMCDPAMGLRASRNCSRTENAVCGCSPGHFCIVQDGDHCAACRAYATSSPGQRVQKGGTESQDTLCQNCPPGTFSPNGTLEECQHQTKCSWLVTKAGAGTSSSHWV

T5: human GITR-Fc (R&D Systems cat no. 689-GR) (human, UniProt Q9Y5U5 26-161)
T5 construct: Bought protein; also called Glucocorticoid-induced TNFR-related
T5 sequence (looked up): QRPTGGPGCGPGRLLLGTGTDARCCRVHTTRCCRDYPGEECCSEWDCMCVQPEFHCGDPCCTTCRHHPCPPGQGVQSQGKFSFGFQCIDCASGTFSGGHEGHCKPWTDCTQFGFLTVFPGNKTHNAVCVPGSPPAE

T6: human OX40-Fc (R&D Systems cat no. 3388-OX) (human, UniProt P43489 29-216)
T6 construct: Bought protein
T6 sequence (looked up): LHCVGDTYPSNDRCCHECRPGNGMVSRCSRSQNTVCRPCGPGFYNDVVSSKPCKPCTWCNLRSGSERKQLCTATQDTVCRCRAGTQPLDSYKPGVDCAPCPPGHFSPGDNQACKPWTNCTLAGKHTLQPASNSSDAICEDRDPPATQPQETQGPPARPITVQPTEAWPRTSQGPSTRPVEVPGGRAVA

B1: 003BB172-E01 (VHH)
VHH: EVQLVESGGGLVQPGGSLRLSCAASGFTFSNYGMHWVRQAPGKRLEWVAVISNDGNTKTYADSVKGRFTISRDNSKNMLYLQMTSLRTEDTAVYYCAQDETTTVTASYYFDYWGQGTLVTVSS
notes: also called 003BB1172-E01
B2: 003BB172-E01-14 (VHH)
VHH: EVQLVESGGGVVQPGRSLRLSCAASGFTFSNYGMHWVRQAPGKGLEWVAVISNDGNTKTYADSVKGRFTISRDNSKNTLYLQMNSLRAEDTAVYYCAQDETTTVTASYYFDYWGQGTLVTVSS
notes: Human VH single domain antibody, monovalent
B3: 003BB172-E01 (VHH)
VH: EVQLVESGGGLVQPGGSLRLSCAASGFTFSNYGMHWVRQAPGKRLEWVAVISNDGNTKTYADSVKGRFTISRDNSKNMLYLQMTSLRTEDTAVYYCAQDETTTVTASYYFDYWGQGTLVTVSS
notes: Human VH single domain antibody (Humabody), monovalent, His-tagged in the assays; also called 003BB1172-E01; not shown: C-terminal 6xHIS tag
B4: 003BB172-E01-14 (VHH)
VH: EVQLVESGGGVVQPGRSLRLSCAASGFTFSNYGMHWVRQAPGKGLEWVAVISNDGNTKTYADSVKGRFTISRDNSKNTLYLQMNSLRAEDTAVYYCAQDETTTVTASYYFDYWGQGTLVTVSS
notes: Human VH single domain antibody, His-tagged in the assays; not shown: C-terminal 6xHIS tag

Key:
[1] = molecular target: T7, human CD137 expressed on CHO cells (human, UniProt Q07011 18-255); experiment: FMAT/Mirrorball on CHO huCD137 cells
T7 construct: also called CHO huCD137; CHO human CD137 cells
Procedure, shortened: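 His-tagged VH molecules bound to CHO cells expressing human PD-1 or human CD137, with CHO parent cells as control, in PBS pH 7.4, 0.1% BSA, 0.05% sodium azide. Read by FMAT on Mirrorball (ex 488/640 nm); binding taken as FL2 median fluorescence intensity of FL5-gated events.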

[2] = molecular target: human CD40 (R&D Systems cat no. CDO-H5253) (human, UniProt P25942 21-193, limits assumed); experiment: ELISA, plate-coated human CD40; legend: No binding (-)
Experimental: (§1) Specificity of binding for CD137 over the tumour necrosis factor receptor family members OX40, GITR (Glucocorticoid-induced TNFR-related), CD40 and HVEM was determined using an ELISA assay. Nunc Maxisorp plates were coated with 1 ug/ml human CD137-Fc recombinant protein (Acro Biosystems 41B-H5258), human GITR-Fc (R&D Systems cat no. 689-GR) human OX40-Fc (R&D Systems cat no. 3388-OX), human CD40 (R&D Systems cat no. CDO-H5253), human HVEM (R&D Systems cat no. HVM-H5258) in PBS overnight at 4° C. then washed twice with PBS. Non-specific protein interactions were blocked by incubation with 1% (w/v) skimmed milk powder (Marvel®) in PBS/0.1% Tween-20 for 1 hour at room temperature. Plates were washed twice with PBS then VH or antibody control (1 ug/ml) added for 1 hour at room temperature. Following three washes with PBS/0.1% Tween-20 a 1:1000 dilution of anti His-HRP (VH detection) or anti mouse-HRP (positive control mouse monoclonal antibody detection) was added in 1% Marvel/PBS/0.1% Tween-20. The detection antibodies were allowed to bind for 1 hour at room temperature then the plates were washed twice in PBS/0.1% Tween-20 and once in PBS. The ELISA was developed using TMB substrate and the reaction was stopped by the addition of 50 ul 0.5M H₂SO₄ solution. The absorbance at 450 nm was measured using the BMG Pherastar.

[3] = molecular target: T1, human OX40-Fc (R&D Systems cat no. …); experiment: ELISA, plate-coated human OX40-Fc; legend: No binding (-)
Experimental: as §1

[4] = molecular target: T8, Rhesus CD137-Fc tagged protein (rhesus, UniProt H9Z8K9 24-186); experiment: BLI (Octet RED384), CD137-Fc on Protein G sensor, 1:1 model
T8 construct: extracellular domain; The Octet paragraph gives no catalogue number; also called rhCD137-Fc
Experimental: Binding kinetics of purified monovalent VH molecules were measured on a ForteBio Octet RED 384 instrument. Human and Rhesus CD137-Fc tagged protein was diluted to 5 μg/ml in kinetics buffer (0.05% Tween, 1×PBS) and coupled to Protein G biosensors (ForteBio cat no. 18-5082) via the Fc tag. VH were serially diluted (typically 1:2 dilution series starting with 200 nM, VH at the highest concentration) and binding to the CD137-Fc-coupled Protein G biosensors measured. Binding kinetics were determined from the (blank subtracted) sensor gram trace using 1:1 binding models and ForteBio Octet Data Analysis 9.0 software. Example kinetic and binding affinity data obtained is shown Table 18 (monovalent VH).

[5] = molecular target: T2, human HVEM (R&D Systems cat no. …); experiment: ELISA, plate-coated human HVEM; legend: No binding (-)
Experimental: as §1

[6] = molecular target: T3, human GITR-Fc (R&D Systems cat no. …); experiment: ELISA, plate-coated human GITR-Fc; legend: No binding (-)
Experimental: as §1

[7] = molecular target: T4, human HVEM (R&D Systems cat no. …); experiment: ELISA, plate coated with 1 ug/ml recombinant protein, anti His-HRP detection
Experimental: as §1

[8] = molecular target: T5, human GITR-Fc (R&D Systems cat no. …); experiment: as above
Experimental: as §1

[9] = molecular target: T9, human CD40 (R&D Systems cat no. CDO-H5253) (human, UniProt P25942 21-193, limits assumed); experiment: as above
T9 construct: Bought protein
Experimental: as §1

[10] = molecular target: T6, human OX40-Fc (R&D Systems cat no. …); experiment: as above
Experimental: as §1

Row | Binder | EC50 [1] | binding result [2] | binding result [3] | Kd [4] | koff [4] | kon [4] | binding result [5] | binding result [6] | binding result [7] | binding result [8] | binding result [9] | binding result [10]
1 | B1 | 1.73 nM | no binding (tested: 1 ug/ml) | no binding (tested: 1 ug/ml) | 27.5 nM | 0.00131 s⁻¹ | 47800 M⁻¹ s⁻¹ | no binding (tested: 1 ug/ml) | no binding (tested: 1 ug/ml) |  |  |  | 
2 | B2 | 1.29 nM | no binding (tested: 1 ug/ml) | no binding (tested: 1 ug/ml) | 25.9 nM | 0.00159 s⁻¹ | 61300 M⁻¹ s⁻¹ | no binding (tested: 1 ug/ml) | no binding (tested: 1 ug/ml) |  |  |  | 
3 | B3 |  |  |  |  |  |  |  |  | no binding (tested: 1 ug/ml) | no binding (tested: 1 ug/ml) | no binding (tested: 1 ug/ml) | no binding (tested: 1 ug/ml)
4 | B4 |  |  |  |  |  |  |  |  | no binding (tested: 1 ug/ml) | no binding (tested: 1 ug/ml) | no binding (tested: 1 ug/ml) | no binding (tested: 1 ug/ml)
